Experimental data published in patent US9394352B2, “Immunogenic POTE peptides and methods of use” (The United States of America, as represented by the …, priority 2010, dated 2016).
Entries after “also recorded” stand apart in the source; their conditions may differ.

Assays:
HLA-A2 molecule = target: T1, HLA-A2 molecule (Homo sapiens, UniProt P04439, D140Y/D185E/D98H/E176V/E277Q/G131W/G231S/I119V/I121R/I166T/I218V/L300P/L318F/N151K/N90K/P208A/P217A/Q86G/Q94H/R138H/R169H/T345S); experiment: T2 binding assay (HLA-A2 up-regulation on TAP-deficient T2 cells); conditions: for binding affinity for the HLA-A2 molecule (in words): T2 binding assay; for FI0.5: peptide concentration that increases HLA-A2.1 expression by 50% over no peptide
T1 construct: The T2 cell line is deficient for TAP1 and TAP2 transporter proteins and expresses low levels of HLA-A2; endogenous in cells; host or cells: T2 cell line (TAP1/TAP2-deficient)
Procedure: FIG. 1 is a graph showing binding affinity of POTE peptides to HLA-A2 molecules. Peptides were dissolved in DMSO in double-distilled water and different concentrations of peptides were added into the culture of TAP-deficient T2 cells. After overnight culture of the cells in medium supplemented with β2-microglobulin, cells were stained with anti-HLA-A2. HLA-A2 expression was quantified as fluorescence index (FI) according to the following formula: FI=[(mean fluorescence intensity with peptide−mean fluorescence intensity without peptide)/mean fluorescence intensity without peptide]. Background fluorescence without BB7.2 was subtracted for each individual value. To compare the different peptides, FI0.5 (the peptide concentration that increases HLA-A2.1 expression by 50% over no peptide control background) was calculated from the titration curve for each peptide.
FIGS. 2A-2C are graphs showing binding affinity of substituted POTE peptides to HLA-A2 molecules. Shown are binding affinities of the substituted POTE 252 peptides (FIG. 2A), the substituted POTE 553 peptides (FIG. 2B) and the substituted POTE 323 peptides (FIG. 2C) to HLA-A2 molecules. Different concentrations of peptides were added into the culture of TAP-deficient T2 cells. After overnight culture of the cells in medium supplemented with β2-microglobulin, cells were stained with anti-HLA-A2 antibody.
Peptide binding capacity to the HLA-A2 molecule was measured by using the T2 cell line according to a protocol described previously (Peters et al., Bioinformatics 19(14):1765-1772, 2003). T2 cells (3×10^5 cells/well) were incubated overnight in 96-well plates with culture medium (1:1 mixture of RPMI 1640/Eagle-Hank's amino acid containing 2.5% fetal bovine serum, 100 U/ml penicillin, and 100 μg/ml streptomycin) with 10 μg/ml β2-microglobulin (Sigma) and different titrated concentrations of peptides (starting from 100 μM with 2-fold serial dilution) as shown in the figures to determine the concentration giving a 50% increasing in binding. Cells were washed once with cold HBSS containing 0.1% BSA and incubated for 30 minutes at 4° C. with anti-HLA-A2.1 BB7.2 monoclonal antibody (1:40 dilution from hybridoma supernatant). After washing, cells were stained with FITC-labeled goat anti-mouse immunoglobulin (BD, San Jose, Calif.), and the level of HLA expression was measured by flow cytometry. HLA-A2 expression was quantified as fluorescence index (FI) according to the following formula: FI=[(geometric mean fluorescence intensity with peptide-geometric mean fluorescence intensity without peptide)/geometric mean fluorescence intensity without peptide]. Background fluorescence without BB7.2 was subtracted for each individual value. To compare the different peptides, FI0.5, the peptide concentration that increases HLA-A2.1 expression by 50% over no peptide control background, was calculated from the titration curve for each peptide.

[1] = test system: IFN-γ secreting spleen cells; experiment: ex vivo IFN-γ ELISPOT assay on splenocytes of peptide-immunized AAD mice; assay type: in vivo; conditions: for IFN-γ response (ELISPOT spots) on stimulation with the immunizing peptide: AAD mice immunized s.c., splenocytes pooled from three mice two weeks after boost
Procedure: (§1) FIGS. 3A and 3B are graphs showing immunogenicity of the wild type and enhanced POTE 252 epitopes in AAD mice. AAD mice were immunized subcutaneously with a mixture of peptide and cytokines in adjuvant as described in Example 1. (FIG. 3A) Two weeks after the second boost, splenocytes pooled from three mice were restimulated with splenocytes of naïve AAD mice pulsed with 1.0 μM of each peptide at different effector to target (E/T) ratios. Cells were cultured in anti-mouse IFN-γ antibody coated ELISPOT™ plates. After overnight culture, biotinylated anti-mouse IFN-γ antibodies were added to each well. ELISPOT™ substrates were added to develop the color and spots were counted by an ELISPOT™ reader (AID ELISPOT™ reader system). Figures show numbers of spots per million cells. (FIG. 3B) CTL cross-reactivity on each peptide. Two weeks after the second boost, pooled spleen cells from three mice were restimulated with irradiated splenocytes pulsed with 1.0 μM of peptide for 7 days. In a 4-hour ^51Cr release assay, CIR.AAD cells were pulsed with 1.0 μM of peptide and labeled with ^51Cr. After washing three times, target cells were mixed with different numbers of effector cells and then cultured for 4 hours before harvesting.
(§2) FIGS. 4A-4D are graphs showing immunogenicity of the wild type and enhanced POTE 553 epitopes in AAD mice. AAD mice were immunized subcutaneously with a mixture of peptide and cytokines in adjuvant. (FIGS. 4A and 4B) Two weeks after the second boost, splenocytes pooled from three mice were restimulated with splenocytes of naïve AAD mice pulsed with 10 nM to 1.0 μM of each peptide at different E/T ratios. Cells were cultured in anti-mouse IFN-γ antibody coated ELISPOT™ plates. After overnight culture, biotinylated anti-mouse IFN-γ antibodies were added to each well. ELISPOT™ substrates were added to develop color and spots were counted by an ELISPOT™ reader (AID ELISPOT™ reader system). Figures show numbers of spots per million cells. (FIGS. 4C and 4D) CTL cross-reactivity on each peptide. Two weeks after the second boost, pooled spleen cells from three mice were restimulated with irradiated splenocytes pulsed with 1.0 μM of peptide for 7 days. In a 4-hour ^51Cr release assay, CIR.AAD cells were pulsed with 1.0 μM of peptide and labeled with ^51Cr. After washing three times, target cells were mixed with different numbers of effector cells and then cultured for 4 hours before harvesting.
(§3) FIGS. 5A and 5B are graphs showing immunogenicity of the POTE 272 epitope in AAD mice. AAD mice were immunized subcutaneously with a mixture of peptide and cytokines in adjuvant. (FIG. 5A) Two weeks after the second boost, splenocytes pooled from three mice were restimulated with splenocytes of naïve AAD mice pulsed with 1.0 μM POTE 272 peptide at different E/T ratios. Cells were cultured in anti-mouse IFN-γ antibody coated ELISPOT™ plates. After overnight culture, biotinylated anti-mouse IFN-γ antibodies were added in each well. ELISPOT™ substrates were added to develop color and spots were counted by an ELISPOT™ reader (AID ELISPOT™ reader system). Figures show numbers of spots per million cells. (FIG. 5B) CTL reactivity on POTE 272 peptide. Two weeks after the second boost, pooled spleen cells from three mice were restimulated with irradiated splenocytes pulsed with 1.0 μM POTE 272 peptide for 7 days. In a 4-hour ^51Cr release assay, CIR.AAD cells were pulsed with 1.0 μM POTE 272 peptide and labeled with ^51Cr. After washing three times, target cells were mixed with different numbers of effector cells and then cultured for 4 hours before harvesting.
(§4) FIGS. 6A and 6B are graphs showing immunogenicity of the wild type and enhanced POTE 323 epitopes in AAD mice. AAD mice were immunized subcutaneously with a mixture of peptide and cytokines in adjuvant. (FIG. 6A) Two weeks after the second boost, splenocytes pooled from three mice were restimulated with splenocytes of naïve AAD mice pulsed with 1.0 μM of each peptide at different E/T ratios. […]

[2] = test system: C1R.AAD cells pulsed with peptide; experiment: 4-hour 51Cr release CTL assay after one week in vitro stimulation; assay type: cell-based, human; conditions: CTLs from immunized AAD mice, restimulated 7 days with 1.0 μM peptide; targets pulsed with 1.0 μM peptide
Procedure: as §1, §2, §3, §4

[3] = substituted peptides and their wild types, Table 2 / FIGS. 2A-2C
[4] = wild-type peptides, Table 1 / FIG. 1

| Sequence | FI0.5 (HLA-A2 molecule; [3]) [µM] | IFN-γ response (ELISPOT spots) on stimulation with the immunizing peptide [1] | CTL lysis of peptide-pulsed target cells [2] | further results |
| --- | --- | --- | --- | --- |
| LLAEQNVDV [POTE 323-3A, modified POTE 323 peptide, alanine at position 3] | 0.4 | – | – | – |
| YLLEQNVDV [POTE 323-1Y, modified POTE 323 peptide, tyrosine at position 1] | 0.25 | – | – | – |
| YLMAKALLL [POTE 252-1Y, modified POTE 252 peptide, tyrosine at position 1] | 0.9 | no significant IFN-γ responses were detected | not detectable | – |
| KILEEIASV [POTE-553-7A, modified POTE 553 peptide, alanine at position 7] | 0.2 | – | – | – |
| KLLEEIESV [POTE 553-2L, modified POTE 553 peptide, leucine at position 2] | 0.1 | induced some extent of IFN-γ responses only after stimulation with the same peptide | did not lyse target cells pulsed with POTE 553-2L | IFN-γ ELISPOT cross-reactive response to the wild type peptide ([1]; AAD mice immunized s.c. with the enhanced peptide): no cross-reactive response to wild type peptide was detected |
| KLFAKALLL [POTE 252-3F, modified POTE 252 peptide, phenylalanine at position 3] | 1.5 | – | – | – |
| KLAAKALLL [POTE 252-3A, modified POTE 252 peptide, alanine at position 3] | 16.9 | – | – | – |
| VLMLLEHGA [POTE 222-230] | – | – | – | binding affinity for the HLA-A2 molecule (in words) (HLA-A2 molecule): weak binder; FI0.5 (HLA-A2 molecule; [4]): approximately 42.4 μM |
| KLMAKAALL [POTE 252-7A, modified POTE 252 peptide, alanine at position 7] | 4 | – | – | – |
| GLTPLLLGV [POTE 272-280, unmodified 9-mer peptide, residues 272-280 of human POTE] | – | induced significant IFN-γ responses | lysed target cells pulsed with POTE 272 | binding affinity for the HLA-A2 molecule (in words) (HLA-A2 molecule): strongest HLA-A2 binding affinity; FI0.5 (HLA-A2 molecule; [4]): ~0.9 µM |
| KIFEEIESV [POTE 553-3F, modified POTE 553 peptide, phenylalanine at position 3] | 0.3 | – | – | – |
| LLLEQNADV [POTE 323-7A, modified POTE 323 peptide, alanine at position 7] | 2.78 | – | – | – |

The next lines start with results.

| FI0.5 (HLA-A2 molecule; [3]) [µM] | Sequence | IFN-γ response (ELISPOT spots) on stimulation with the immunizing peptide [1] | CTL lysis of peptide-pulsed target cells [2] | further results |
| --- | --- | --- | --- | --- |
| 2.6 | KILEEIESV [POTE 553-561, unmodified 9-mer peptide, residues 553-561 of human POTE] | did not induce any significant IFN-γ responses | not any significant detectable target cell lysis | binding affinity for the HLA-A2 molecule (in words) (HLA-A2 molecule): strongest HLA-A2 binding affinity; also recorded: intermediate binders; FI0.5 (HLA-A2 molecule; [4]): ~5.6 µM |
| 0.3 | LLLEQNVDV [POTE 323-331, unmodified 9-mer peptide, residues 323-331 of human POTE] | induced some IFN-γ responses after stimulation with the identical peptide | did not lyse target cells pulsed with POTE 323 | binding affinity for the HLA-A2 molecule (in words) (HLA-A2 molecule): intermediate binders; also recorded: strongest binding affinity; FI0.5 (HLA-A2 molecule; [4]): ~0.8 µM; IFN-γ response over background level ([1]; AAD mice, ELISPOT): less than 2 fold |
